The data set is described as follows: protein stability index of a GFP-peptide fusion (GPS, HEK-293T) (PSI 1-6); higher = more stable. To be noted: c terminus: native.

The source of these data is the supplement of paper PMC10567573.
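Also: lentivirally expressed fusion library, cells FACS-sorted into six equal-sized GFP/DsRed ratio bins, PSI computed from sequencing read fractions per bin weighted by bin number.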

B1: SNF8 addQ (peptide)
chain: LPALFTDLYSQEITAEEAREALPQ
Take B1: the protein stability index (parent: NP_009172.2) amounted to 5.05.

B2: PSMB5 addQ (peptide)
chain: DGWIRVSSDNVADLHEKYSGSTPQ
Regarding B2, the protein stability index (parent: NP_002788.1) is 3.53.

B3: POLD2 addQ (peptide)
chain: CQPISFSGFGAEDDDLGGLGLGPQ
For B3, the protein stability index (parent: NP_006221.1) was determined as 2.97.

B4: TRPA1 addQ (peptide)
chain: EQRNSRWNTVLRAVKAKTHHLEPQ
B4: the protein stability index (parent: NP_015628.1) is 4.94.
